Test results taken from publication PMC9666628 (Nature Communications, 2022).
Residue numbers refer to the chain shown, from its start. Where “and” joins values, the source holds several entries; their conditions need not be identical. Equal values may be shown once.

T1: Cbx7.V1 chromodomain variant (protein used for BLI) (human, UniProt O95931 7-66, E8D (printed as the back-mutation D8E) | Q9D | V10I (printed as the …))
T1 construct: chromodomain of human Cbx7 with the six substitutions of the phage-selected variant V1; residues numbered on full-length Cbx7; for BLI they were probably still on the protein; source: E. coli BL21(DE3), purified (Ni-NTA)
T1 sequence: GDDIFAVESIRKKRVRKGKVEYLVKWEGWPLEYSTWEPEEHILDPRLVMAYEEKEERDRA

T2: Cbx7.V1 back-mutant D8E (human, UniProt O95931 7-66, Q9D | V10I (printed as the back-mutation I10V) | K33E | P37L (printed as the …))
T2 construct: chromodomain of human Cbx7, variant V1 with residue 8 put back to the wild type; residues numbered on full-length Cbx7; Tags probably still on the protein in BLI (removal is told for FP and ITC only); source: E. coli BL21(DE3), purified (Ni-NTA)
T2 sequence: T1 sequence with D2E

T3: Cbx7.V1 back-mutant D9Q (human, UniProt O95931 7-66, E8D (printed as the back-mutation D8E) | V10I (printed as the back-mutation …))
T3 construct: chromodomain of human Cbx7, variant V1 with residue 9 put back to the wild type; residues numbered on full-length Cbx7; Tags probably still on the protein in BLI (removal is told for FP and ITC only); source: E. coli BL21(DE3), purified (Ni-NTA)
T3 sequence: T1 sequence with D3Q

T4: Cbx7.V1 back-mutant I10V (human, UniProt O95931 7-66, E8D (printed as the back-mutation D8E) | Q9D | K33E | P37L (printed as the …))
T4 construct: chromodomain of human Cbx7, variant V1 with residue 10 put back to the wild type; residues numbered on full-length Cbx7; Tags probably still on the protein in BLI (removal is told for FP and ITC only); source: E. coli BL21(DE3), purified (Ni-NTA)
T4 sequence: T1 sequence with I4V

T5: Cbx7.V1 back-mutant L37P (human, UniProt O95931 7-66, E8D (printed as the back-mutation D8E) | Q9D | V10I (printed as the …))
T5 construct: chromodomain of human Cbx7, variant V1 with residue 37 put back to the wild type; residues numbered on full-length Cbx7; Tags probably still on the protein in BLI (removal is told for FP and ITC only); source: E. coli BL21(DE3), purified (Ni-NTA)
T5 sequence: T1 sequence with L31P

T6: Cbx7.V1 back-mutant E38K (human, UniProt O95931 7-66, E8D (printed as the back-mutation D8E) | Q9D | V10I (printed as the …))
T6 construct: chromodomain of human Cbx7, variant V1 with residue 38 put back to the wild type; residues numbered on full-length Cbx7; Tags probably still on the protein in BLI (removal is told for FP and ITC only); source: E. coli BL21(DE3), purified (Ni-NTA)
T6 sequence: T1 sequence with E32K

T7: Cbx7.V1 (tags removed, used for FP and ITC) (human, UniProt O95931 7-66, E8D (printed as the back-mutation D8E) | Q9D | V10I (printed as the …))
T7 construct: chromodomain of human Cbx7 (Cbx7-chromo), UniProt O95931; source: E. coli BL21(DE3), purified (Ni-NTA; tags removed with TEV protease)
T7 sequence: T1 sequence

T8: wild-type Cbx7 chromodomain (tags removed) (human, UniProt O95931 7-66)
T8 construct: chromodomain of human Cbx7 (Cbx7-chromo), UniProt O95931; also called Cbx7.wt; source: E. coli BL21(DE3), purified (Ni-NTA; tags removed with TEV protease)
T8 sequence: T1 sequence with D2E, D3Q, I4V, E27K, L31P, E32K

T9: Cbx7 Q9D chromodomain (tags removed) (human, UniProt O95931 7-66, Q9D)
T9 construct: chromodomain of human Cbx7 (Cbx7-chromo), UniProt O95931; source: E. coli BL21(DE3), purified (Ni-NTA; tags removed with TEV protease)
T9 sequence: T1 sequence with D2E, I4V, E27K, L31P, E32K

T10: Cbx7 K33E chromodomain (tags removed) (human, UniProt O95931 7-66, K33E)
T10 construct: chromodomain of human Cbx7 (Cbx7-chromo), UniProt O95931; source: E. coli BL21(DE3), purified (Ni-NTA; tags removed with TEV protease)
T10 sequence: T1 sequence with D2E, D3Q, I4V, L31P, E32K

T11: Cbx7.VD chromodomain, Q9D/K33E (tags removed) (human, UniProt O95931 7-66, Q9D | K33E)
T11 construct: chromodomain of human Cbx7 (Cbx7-chromo), UniProt O95931; source: E. coli BL21(DE3), purified (Ni-NTA; tags removed with TEV protease)
T11 sequence: T1 sequence with D2E, I4V, L31P, E32K

T12: wild-type Cbx2 chromodomain (tags removed) (human, UniProt Q14781 9-62)
T12 construct: chromodomain of human Cbx2; also called Cbx2.wt; source: E. coli BL21(DE3), purified (Ni-NTA; tags removed with TEV protease)
T12 sequence: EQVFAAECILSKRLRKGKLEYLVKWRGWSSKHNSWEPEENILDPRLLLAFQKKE

T13: wild-type Cbx8 chromodomain (tags removed) (human, UniProt Q9HC52 8-61)
T13 construct: chromodomain of human Cbx8; also called Cbx8.wt; source: E. coli BL21(DE3), purified (Ni-NTA; tags removed with TEV protease)
T13 sequence: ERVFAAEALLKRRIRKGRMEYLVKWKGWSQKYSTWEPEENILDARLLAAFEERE

B1: Cbx6.VD chromodomain, Asp9/Glu33 (tags removed) (domain or fragment)
chain: GEDVFAAESIIKRRIRKGRIEYLVKWEGWAIKYSTWEPEENILDSRLIAAFEQKERERELYGP
B2: H3K27me3 peptide, biotinylated (peptide)
chain: KQLATKAARKSAPATGGVK
modifications: trimethyl-lysine at K27; biotin followed by an aminohexanoic acid linker at the N-terminus
B3: H3K9me3 peptide, N-terminal FITC (peptide)
chain: ARTKQTARKSTGGKAPR
modifications: trimethyl-lysine at K9; fluorescein isothiocyanate (FITC) at the N-terminus

Experiments:
Details in all cases: both partners purified
[1] = target: B3; test: fluorescence polarisation; 0.5 nM FITC-labelled peptide; chromodomains 200-0.2 µM (wild type) or 50 µM-50 nM (Cbx7.V1 and all Cbx.VDs); 30 min at 25 °C; 25 mM HEPES pH 7.5, 150 mM NaCl, 1 mM DTT, 0.01% TritonX-100; one-site total binding model
[2] = target: T1, Cbx7.V1 chromodomain variant (protein …); test: BLI; biotinylated peptide on streptavidin biosensor tips, chromodomain in solution at 5 or 1 µM; 25 °C; 25 mM HEPES pH 7.0, 150 mM NaCl, 1 mg/ml BSA, 0.01% Tween-20; steady-state fit, Langmuir model; values of single replicates
Cbx7.V1 back-mutant D8E = target: T2, Cbx7.V1 back-mutant D8E; test: as above
Cbx7.V1 back-mutant D9Q = target: T3, Cbx7.V1 back-mutant D9Q; test: as above
Cbx7.V1 back-mutant I10V = target: T4, Cbx7.V1 back-mutant I10V; test: as above
Cbx7.V1 back-mutant L37P = target: T5, Cbx7.V1 back-mutant L37P; test: as above
Cbx7.V1 back-mutant E38K = target: T6, Cbx7.V1 back-mutant E38K; test: as above
[3] = target: T7, Cbx7.V1 (tags removed, used for FP and …); test: fluorescence polarisation; 0.5 nM FITC-labelled peptide; chromodomains 200-0.2 µM (wild type) or 50 µM-50 nM (Cbx7.V1 and all Cbx.VDs); 30 min at 25 °C; 25 mM HEPES pH 7.5, 150 mM NaCl, 1 mM DTT, 0.01% TritonX-100; one-site total binding model
[4] = target: T8, wild-type Cbx7 chromodomain (tags …); test: as above
[5] = target: T9, Cbx7 Q9D chromodomain (tags removed); test: as above
[6] = target: T10, Cbx7 K33E chromodomain (tags removed); test: as above
[7] = target: T11, Cbx7.VD chromodomain, Q9D/K33E (tags …); test: as above
[8] = target: T14, wild-type Cbx1 chromodomain (tags removed) (human, UniProt P83916 20-73); test: as above
T14 construct: chromodomain of human Cbx1; also called Cbx1.wt; source: E. coli BL21(DE3), purified (Ni-NTA; tags removed with TEV protease)

[9] = target: T15, wild-type Cbx3 chromodomain (tags removed) (human, UniProt Q13185 29-86); test: as above
T15 construct: chromodomain of human Cbx3; also called Cbx3.wt; source: E. coli BL21(DE3), purified (Ni-NTA; tags removed with TEV protease)

[10] = target: T16, wild-type Cbx5 chromodomain (tags removed) (human, UniProt P45973 18-75); test: as above
T16 construct: chromodomain of human Cbx5; also called Cbx5.wt; source: E. coli BL21(DE3), purified (Ni-NTA; tags removed with TEV protease)

[11] = target: T12, wild-type Cbx2 chromodomain (tags …); test: as above
[12] = target: T13, wild-type Cbx8 chromodomain (tags …); test: as above

T14 sequence (P83916 20-73, looked up): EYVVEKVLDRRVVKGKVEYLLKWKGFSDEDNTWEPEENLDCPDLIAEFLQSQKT
T16 sequence (P45973 18-75, looked up): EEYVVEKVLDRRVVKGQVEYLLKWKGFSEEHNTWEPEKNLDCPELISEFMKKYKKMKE
T15 sequence (Q13185 29-86, looked up): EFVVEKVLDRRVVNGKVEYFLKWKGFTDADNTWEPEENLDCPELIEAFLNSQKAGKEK

Binder: B1
Kd [1]: > 50000 nM

Binder: B2
Kd [2]: 2000 nM and 2200 nM
Kd (Cbx7.V1 back-mutant D8E): 1900 nM and 2200 nM
Kd (Cbx7.V1 back-mutant D9Q): 1600 nM and 2700 nM
Kd (Cbx7.V1 back-mutant I10V): 2800 nM and 1600 nM
Kd (Cbx7.V1 back-mutant L37P): 2800 nM and 2200 nM
Kd (Cbx7.V1 back-mutant E38K): 1500 nM and 1700 nM

Binder: B3
Kd [3]: 7000 nM
Kd [4]: 30000 nM
Kd [5]: 10000 nM
Kd [6]: 20000 nM
Kd [7]: 8000 nM
Kd [8]: 500 nM
Kd [9]: 2000 nM
Kd [10]: 5000 nM
Kd [11]: > 200000 nM
Kd [12]: > 200000 nM
